Starred links: 1 amine or outer side, 2 acyl side, 3 side chain; linkers in the order of their positions; H or OH if unused. Non-standard residues stand in square brackets, D forms with d. Residues, ends and D or L forms follow the SMILES beside them. Groups on a side chain read outwards from the residue. No end group written: not given here. *: point of attachment. C20 diacid = O=C(O)CCCCCCCCCCCCCCCCCCC(=O)*; C18 diacid = O=C(O)CCCCCCCCCCCCCCCCC(=O)*; γGlu = O=C(O)[C@H](CCC(=O)[*:2])N[*:1]; αMeF = C[C@](N)(Cc1ccccc1)C(=O)O; AEEA = NCCOCCOCC(=O)O; Aib = CC(C)(N)C(=O)O
Legend:
[1] = target: T1, human GLP-1 receptor (hGLP-1R) (Homo sapiens, UniProt P43220); test: cAMP production (HTRF) in CHO cells expressing human GLP-1 receptor; format: cell-based; details: Table 8; % GLP-1R activity relative to GLP-1 / % GlucR activity relative to glucagon
T1 construct: expressed in transfected cells; host or cells: CHO
T1 sequence (P43220 24-463): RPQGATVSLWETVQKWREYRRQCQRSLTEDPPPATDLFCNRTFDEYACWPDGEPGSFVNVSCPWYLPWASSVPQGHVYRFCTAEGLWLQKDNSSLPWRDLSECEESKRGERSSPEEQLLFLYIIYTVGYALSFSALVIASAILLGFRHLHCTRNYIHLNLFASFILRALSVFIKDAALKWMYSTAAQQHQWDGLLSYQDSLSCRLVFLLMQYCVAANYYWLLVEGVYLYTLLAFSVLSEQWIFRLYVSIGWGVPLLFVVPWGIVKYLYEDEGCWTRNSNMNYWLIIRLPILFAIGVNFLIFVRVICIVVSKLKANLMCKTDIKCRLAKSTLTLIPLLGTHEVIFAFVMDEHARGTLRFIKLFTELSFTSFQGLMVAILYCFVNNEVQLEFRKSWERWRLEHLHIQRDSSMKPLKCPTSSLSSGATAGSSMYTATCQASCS
Description: Cells were re-suspended in assay buffer at a batch-dependent optimized concentration (typically hGLP-1R cells at 1×10^5 cells/mL, hGCGR cells at 2×10^5 cells/mL).
Cells were added to the assay plate using a multidrop dispenser and incubated at room temperature for 30 minutes before measuring the cAMP level using a cAMP dynamic 2 homogeneous time resolved Fluorescence (HTRF) kit (Cisbio Bioassays #62AM4PEJ) following the two-step protocol as per manufacturer's recommendations. In brief, anti-cAMP cryptate (donor fluorophore) and cAMP-d2 (acceptor fluorophore) were made up separately by diluting each 1 in 20 in conjugate and lysis buffer provided in the kit. Anti-cAMP cryptate was added to all wells of the assay plate, followed by cAMP-d2 added to all wells except non-specific binding (NSB) wells (to which conjugate and lysis buffer was added).
Data was transformed to % Delta F as described in the manufacturer's guidelines and analyzed by 4-parameter logistic fit to determine EC50 values.

[2] = target: human glucagon receptor (human, UniProt P47871); test: cell-based or functional assay
[3] = target: human GLP-1 receptor (human, UniProt P43220); test: cell-based or functional assay

Molecule	% Relative Potency Ratio [1]	hGluc-R EC50 (pM) [2] [pM]	hGLP-1R EC50 (pM) [3] [pM]
CC[C@H](C)[C@H](NC(=O)C(C)(C)NC(=O)[C@H](CCCCNC(=O)COCCOCCNC(=O)COCCOCCNC(=O)CC[C@H](NC(=O)CCCCCCCCCCCCCCCCC(=O)O)C(=O)O)NC(=O)[C@@H](NC(=O)[C@](C)(Cc1ccccc1)NC(=O)[C@H](CC(=O)O)NC(=O)[C@H](CCC(N)=O)NC(=O)[C@H](C)NC(=O)[C@H](C)NC(=O)[C@H](CCC(N)=O)NC(=O)[C@H](CO)NC(=O)[C@H](CC(=O)O)NC(=O)[C@H](CC(C)C)NC(=O)[C@](C)(Cc1ccccc1)NC(=O)[C@H](CCCCN)NC(=O)[C@H](CO)NC(=O)[C@@H](NC(=O)[C@H](CC(=O)O)NC(=O)[C@H](CO)NC(=O)[C@@H](NC(=O)[C@](C)(Cc1ccccc1)NC(=O)[C@H](CO)NC(=O)CNC(=O)[C@H](Cc1c[nH]cn1)NC(=O)C(C)(C)NC(=O)[C@@H](N)Cc1c[nH]cn1)[C@@H](C)O)C(C)C)C(C)C)C(=O)N[C@@H](C)C(=O)N[C@@H](CC(N)=O)C(=O)N[C@H](C(N)=O)[C@@H](C)O [Peptide 383] (H-H[Aib]HGS[αMeF]TSDVSK[αMeF]LDSQAAQD[αMeF]VK([AEEA-AEEA-γGlu-C18 diacid])[Aib]IANT-NH2; N-terminus assumed)	2.3		
H[Aib]QGTFTSDVSK[αMeF]LDSERAK([AEEA-AEEA-γGlu-C20 diacid])DFVAWLEAGG-OH (N-terminus assumed; SMILES CC(C)C[C@H](NC(=O)[C@H](Cc1c[nH]c2ccccc12)NC(=O)[C@H](C)NC(=O)[C@@H](NC(=O)[C@H](Cc1ccccc1)NC(=O)[C@H](CC(=O)O)NC(=O)[C@H](CCCCNC(=O)COCCOCCNC(=O)COCCOCCNC(=O)CC[C@H](NC(=O)CCCCCCCCCCCCCCCCCCC(=O)O)C(=O)O)NC(=O)[C@H](C)NC(=O)[C@H](CCCNC(=N)N)NC(=O)[C@H](CCC(=O)O)NC(=O)[C@H](CO)NC(=O)[C@H](CC(=O)O)NC(=O)[C@H](CC(C)C)NC(=O)[C@](C)(Cc1ccccc1)NC(=O)[C@H](CCCCN)NC(=O)[C@H](CO)NC(=O)[C@@H](NC(=O)[C@H](CC(=O)O)NC(=O)[C@H](CO)NC(=O)[C@@H](NC(=O)[C@H](Cc1ccccc1)NC(=O)[C@@H](NC(=O)CNC(=O)[C@H](CCC(N)=O)NC(=O)C(C)(C)NC(=O)[C@@H](N)Cc1c[nH]cn1)[C@@H](C)O)[C@@H](C)O)C(C)C)C(C)C)C(=O)N[C@@H](CCC(=O)O)C(=O)N[C@@H](C)C(=O)NCC(=O)NCC(=O)O) [Peptide 523]		> 24700	615
H[Aib]QGTFTSDVSE[αMeF]LDSERAK([AEEA-AEEA-γGlu-C18 diacid])DFVRWLEAGG-OH (N-terminus assumed; SMILES CC(C)C[C@H](NC(=O)[C@H](Cc1c[nH]c2ccccc12)NC(=O)[C@H](CCCNC(=N)N)NC(=O)[C@@H](NC(=O)[C@H](Cc1ccccc1)NC(=O)[C@H](CC(=O)O)NC(=O)[C@H](CCCCNC(=O)COCCOCCNC(=O)COCCOCCNC(=O)CC[C@H](NC(=O)CCCCCCCCCCCCCCCCC(=O)O)C(=O)O)NC(=O)[C@H](C)NC(=O)[C@H](CCCNC(=N)N)NC(=O)[C@H](CCC(=O)O)NC(=O)[C@H](CO)NC(=O)[C@H](CC(=O)O)NC(=O)[C@H](CC(C)C)NC(=O)[C@](C)(Cc1ccccc1)NC(=O)[C@H](CCC(=O)O)NC(=O)[C@H](CO)NC(=O)[C@@H](NC(=O)[C@H](CC(=O)O)NC(=O)[C@H](CO)NC(=O)[C@@H](NC(=O)[C@H](Cc1ccccc1)NC(=O)[C@@H](NC(=O)CNC(=O)[C@H](CCC(N)=O)NC(=O)C(C)(C)NC(=O)[C@@H](N)Cc1c[nH]cn1)[C@@H](C)O)[C@@H](C)O)C(C)C)C(C)C)C(=O)N[C@@H](CCC(=O)O)C(=O)N[C@@H](C)C(=O)NCC(=O)NCC(=O)O) [Peptide 524]		> 24400	366
H[Aib]QGTFTSDVSK[αMeF]LDSERAK([AEEA-AEEA-γGlu-C18 diacid])DFVQWLEA[Aib]G-OH (N-terminus assumed; SMILES CC(C)C[C@H](NC(=O)[C@H](Cc1c[nH]c2ccccc12)NC(=O)[C@H](CCC(N)=O)NC(=O)[C@@H](NC(=O)[C@H](Cc1ccccc1)NC(=O)[C@H](CC(=O)O)NC(=O)[C@H](CCCCNC(=O)COCCOCCNC(=O)COCCOCCNC(=O)CC[C@H](NC(=O)CCCCCCCCCCCCCCCCC(=O)O)C(=O)O)NC(=O)[C@H](C)NC(=O)[C@H](CCCNC(=N)N)NC(=O)[C@H](CCC(=O)O)NC(=O)[C@H](CO)NC(=O)[C@H](CC(=O)O)NC(=O)[C@H](CC(C)C)NC(=O)[C@](C)(Cc1ccccc1)NC(=O)[C@H](CCCCN)NC(=O)[C@H](CO)NC(=O)[C@@H](NC(=O)[C@H](CC(=O)O)NC(=O)[C@H](CO)NC(=O)[C@@H](NC(=O)[C@H](Cc1ccccc1)NC(=O)[C@@H](NC(=O)CNC(=O)[C@H](CCC(N)=O)NC(=O)C(C)(C)NC(=O)[C@@H](N)Cc1c[nH]cn1)[C@@H](C)O)[C@@H](C)O)C(C)C)C(C)C)C(=O)N[C@@H](CCC(=O)O)C(=O)N[C@@H](C)C(=O)NC(C)(C)C(=O)NCC(=O)O) [Peptide 525]		2450	177
H[Aib]QGTFTSDVSK[αMeF]LDSERAK([AEEA-AEEA-γGlu-C18 diacid])DFVAWLEA[Aib]G-OH (N-terminus assumed; SMILES CC(C)C[C@H](NC(=O)[C@H](Cc1c[nH]c2ccccc12)NC(=O)[C@H](C)NC(=O)[C@@H](NC(=O)[C@H](Cc1ccccc1)NC(=O)[C@H](CC(=O)O)NC(=O)[C@H](CCCCNC(=O)COCCOCCNC(=O)COCCOCCNC(=O)CC[C@H](NC(=O)CCCCCCCCCCCCCCCCC(=O)O)C(=O)O)NC(=O)[C@H](C)NC(=O)[C@H](CCCNC(=N)N)NC(=O)[C@H](CCC(=O)O)NC(=O)[C@H](CO)NC(=O)[C@H](CC(=O)O)NC(=O)[C@H](CC(C)C)NC(=O)[C@](C)(Cc1ccccc1)NC(=O)[C@H](CCCCN)NC(=O)[C@H](CO)NC(=O)[C@@H](NC(=O)[C@H](CC(=O)O)NC(=O)[C@H](CO)NC(=O)[C@@H](NC(=O)[C@H](Cc1ccccc1)NC(=O)[C@@H](NC(=O)CNC(=O)[C@H](CCC(N)=O)NC(=O)C(C)(C)NC(=O)[C@@H](N)Cc1c[nH]cn1)[C@@H](C)O)[C@@H](C)O)C(C)C)C(C)C)C(=O)N[C@@H](CCC(=O)O)C(=O)N[C@@H](C)C(=O)NC(C)(C)C(=O)NCC(=O)O) [Peptide 526]		690	194

Source: patent publication US12630600B2 (MEDIMMUNE LIMITED, priority 2022, dated 2026)
